Assay results taken from publication PMC7284817.

Experiments:
[1] = target: CXC-motif chemokine ligand 12 (CXCL12), membrane-anchored ligand fusion (Cub-GAL4); test: two-hybrid; MALAR-Y2H; β-galactosidase (ONPG) assay of diploid cells, lysate incubated 30 min at 30°C, OD405, Miller Units, mean of two clones
[2] = target: S. mansoni neuropeptide NPP2a, membrane-anchored ligand fusion (linker-WBP1 TMP-Cub-GAL4) (S. mansoni); test: as above

mouse receptor CXCR4, NubG fusion (positive control), sequence (P70658 whole entry, the tested form may be a part): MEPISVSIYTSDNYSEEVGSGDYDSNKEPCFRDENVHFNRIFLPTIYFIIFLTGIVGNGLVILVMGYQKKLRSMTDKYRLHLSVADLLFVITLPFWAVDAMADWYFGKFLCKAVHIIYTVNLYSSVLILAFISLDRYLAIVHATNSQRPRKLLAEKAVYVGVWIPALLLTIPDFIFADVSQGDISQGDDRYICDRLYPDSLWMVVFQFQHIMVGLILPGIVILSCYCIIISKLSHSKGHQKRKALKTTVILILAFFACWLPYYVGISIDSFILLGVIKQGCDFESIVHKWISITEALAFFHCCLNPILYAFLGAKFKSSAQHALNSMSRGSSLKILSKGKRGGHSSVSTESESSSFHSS

Miller units (β-Gal activity) [1]	Substance	Miller units (β-Gal activity) [2]
3.07 Miller units	mouse receptor CXCR4, NubG fusion (positive control)	
	Schistosoma mansoni G protein-coupled receptor GPCR14 (Smp_203500), fused to NubG	2.68 Miller units
